Laboratory results: US20230183661A1, “BICOMPATIBLE PEPTIDEBIOCOMPATIBLE PEPTIDES FOR INHIBITION OF AGGREGATION OF B-AMYLOID PROTEIN” (Catholic University Industry Academic Cooperation Foundation, priority 2017, published 2023)
Entries after “also recorded” stand apart in the source; their conditions may differ.

Assays:
Aβ [1] = target: T1, Aβ (Homo sapiens, UniProt P05067); assay: Co-IP assay of SOD1 truncated peptides co-overexpressed with Aβ in nerve cells (N2a); type: binding; parameters: Aβ, and generally a peptide consisting of 36 to 43 amino acids; expressed in transfected cells; host or cells: N2a (murine neuroblastoma); details: for Acting with β-amyloid / Binding strength with β-amyloid: Co-IP; for Acting with β-amyloid: peptide and Aβ overexpressed in N2a; for Binding strength with β-amyloid: relative score without scale; for Binding to Aβ: FIG. 3, Co-IP; for Binding strength to Aβ: FIG. 3
Procedure: The transfected HEK293T, H4 and N2a cells were lysed in a NETN buffer and incubated on ice for 1 hour. This solution includes 100 mM of NaCl, 1 mM of EDTA, 20 mM of Tris-HCl (pH 8.0), 0.5% (v/v) NP-40 and protease inhibitors. Among the protease inhibitors, aprotinin and leupeptin have a concentration of 2 μg/ml, and PMSF has a concentration of 0.1 mM.
1 mg of a protein extract and 1 μg of a primary antibody were mixed and cultured at 4° C. for 12 hours. The mixture was mixed with Protein G Sepharose 4 Fast Flow (GE Healthcare), and cultured at 4° C. for 1 hour, yielding a binding immune complex through centrifugation. A sample buffer was added to the precipitated Sepharose and boiled, and the buffer includes 44 mM Tris-HCl (pH 6.8), 2% SDS, 144 mM β-mercaptoethanol, 10% (v/v) glycerol, and 0.004% (v/v) bromophenol blue.
The immunoprecipitated sample was subjected to 12% SDS-polyacrylamide gel electrophoresis (SDS-PAGE) to transfer proteins to a membrane, and then immunoblotting with a FLAG antibody, a SOD1 antibody and a GFP antibody.
To identify a β-strand exposed at a protein surface and inhibiting Aβ protein aggregate formation through interactions with Aβ, all types of truncated fragments of SOD1 consisting of eight β-strands (β1 to β8) were systemically designed and constructed (FIG. 2). FIG. 2 schematically illustrates SOD1 and the β1-to-β8 structure of SOD1, and the sequences of Peptides 1 to 6.
To determine a determinant binding to Aβ, various peptides from which a specific β-strand was removed were constructed. Peptide 2 was prepared by removing a β-turn linked to the β2 strand in Peptide 1. Peptides 1 to 6 and Aβ were overexpressed in nerve cells (N2a), and then a Co-IP assay was performed.

Aβ protein aggregate = target: T2, Aβ protein aggregate (Homo sapiens, UniProt P05067); assay: Aβ aggregation inhibition in nerve cells through IFA; type: cell-based; details: peptide and Aβ expressed, FIG. 7; Aβ-only control about 50% cells with aggregates
T2 construct: Aβ, and generally a peptide consisting of 36 to 43 amino acids; expressed in transfected cells; host or cells: N2a (murine neuroblastoma)
Procedure: (§1) Twenty-four hours after the transfection, N2a cells were incubated in a 4% paraformaldehyde fixation solution for 15 minutes. The cells were washed with PBS three times, and incubated in a 50 mM NH4Cl/PBS quenching solution for 10 minutes.
(§2) Subsequently, the cells were washed with PBS three times, and incubated in a 0.1% Triton X-100/PBS solution for 5 minutes. The cells were then treated and incubated with 2% FBS/blocking buffer at room temperature for 1 hour. The cells were then treated and incubated with FLAG antibodies diluted 1/100 at room temperature for 2 hours, washed with PBS three times, and then treated and incubated with a goat anti-mouse Alexa Fluor®-red 594 dye.
(§3) The sample was washed with PBS three times, and mounted on a glass slide using a FluoroGuard Antifade reagent (Bio-Rad Laboratories, Inc.). A fluorescent image was obtained using a confocal laser scanning microscope (Zeiss LSM 510 Meta, Carl Zeiss AG), and processed using Adobe® Photoshop®, and a fluorescence signal intensity was measured using a ZEN 2009 Light Edition software program.
To confirm the inhibition of Aβ aggregation by the peptide (NABi) of the present invention, the peptide of the present invention and Aβ were expressed in nerve cells, and then an Aβ protein aggregate was quantitatively analyzed through IFA. […]

nerve cells (H4 cells) [2] = assay: Neural cell death through PI staining; type: cell-based; details: peptide and Aβ overexpressed in H4 cells, FIG. 10
Text: Approximately 40 to 50% of the H4 cells were positive for a neuron marker (neuron-specific enolase; NSE). Since the H4 cells were sensitive to an Aβ aggregate, and neural cell death resulted from the Aβ aggregate, they were used in neural cell death analysis.
For the control, Aβ was overexpressed in nerve cells (H4 cells).

nerve cells (H4 cells) [3] = assay: Neural cell death through AnnexinV staining at different peptide expression levels; type: cell-based; details: all expression levels of the peptide, H4 cells with Aβ, FIG. 12
Text: An expression level of the peptide of the present invention was differentially adjusted.

nerve cells (H4 cells) [4] = assay: Neural cell death through nuclear morphology; type: cell-based; details: peptide and Aβ overexpressed in H4 cells, versus Aβ-only control, FIG. 11
Text: For the control, Aβ was overexpressed in the nerve cells (H4 cells).

nerve cells (N2a) [5] = assay: Cytotoxicity through IB of neural cell death-associated proteins; type: cell-based, mouse; details: peptide overexpressed in N2a, FIG. 6
Procedure: (§4) Cells were lysed in an RIPA buffer and incubated at 4° C. for 30 minutes. The RIPA buffer includes 2 μg/mL of a composition including 0.15 M NaCl, 0.5% (v/v) sodium-deoxycholate, 0.1% (v/v) SDS, 0.05 M Tris-HCl (pH 8.0), 1% (v/v) NP-40, aprotinin and leupeptin, 1 mM PMSF and a phosphatase inhibitor.
(§5) The phosphatase inhibitor included 1 mM Na3VO4 and 1 mM NaF. A protein concentration was measured by a Bradford assay (Bio-Rad Laboratories). The sample was separated in a 12% or 15% SDS-polyacrylamide gel.
(§6) The cells were lysed in a lysis buffer (Catalog No. 9803, Cell Signaling Technology), and the sample was separated in a 13% blue gel according to the manufacturer's protocol (MitoSciences Inc.).
(§7) Proteins were transferred to Protran® nitrocellulose membranes (Sigma-Aldrich Co. LLC), and then the membranes were incubated in a 5% non-fat dried milk/TBST solution at room temperature for 1 hour. […]
(§8) The membranes were incubated with a primary antibody at room temperature for 1 hour, and incubated again with a secondary antibody for 1 hour. The antigen-antibody complex was detected using an enhanced chemiluminescence kit (Santa Cruz Biotechnology, Inc.). […]
For the control, normal nerve cells (N2a) were treated with STS to induce apoptotic cell death (apoptosis positive control), and then the expression and activity of a neural cell death-associated protein were evaluated.

Aβ [6] = target: T1, Aβ; assay: Aβ aggregate formation under aggregate formation conditions, measured through IB; type: biochemical; details: FIG. 8
Procedure: 9. Formation of β-Amyloid Aggregate A monomer recombinant Aβ42 (Catalog No. 03-111, Invitrogen™ Co.) peptide was added to 1,1,1,3,3,3-hexafluoro-2-propanol (HFIP, Sigma-Aldrich Co. LLC) and stored in a −80° C. freezer, and the HFIP was evaporated and removed immediately before use. For the Aβ aggregate formation, 20 μM of Aβ peptides were dissolved in a 0.1 M HEPES/TBS buffer or 0.01 M HCl/TBS buffer and incubated at 37° C. for 14 days. The TBS buffer included 50 mM Tris-HCl and 150 mM NaCl.
To confirm the inhibition of Aβ aggregation by the peptide (NABi) of the present invention, the peptide (NABi) of the present invention and Aβ were cultured under i) a 0.1 M HEPES/TBS (pH 7.4) condition or ii) a 0.01 M HCl/TBS condition, and then the degree of Aβ aggregate formation was measured through IB.
Under an Aβ aggregate formation condition, for example, i) a 0.1 M HEPES/TBS (pH 7.4) condition or ii) a 0.01 M HCl/TBS condition, the control was subjected to IB in order to measure a degree of Aβ aggregate formation.

nerve cells (N2a) [7] = assay: Self-aggregate formation of peptide overexpressed in nerve cells (N2a), immunofluorescence; type: cell-based, mouse
Procedure: as §1, §2, §3
To identify whether a self-aggregate of the peptide (NABi) of the present invention was formed, the peptide of the present invention was overexpressed in nerve cells (N2a), and then measured by an immunofluorescence method.

nerve cells (H4 cells) [8] = assay: Neural cell death-associated proteins through IB at different peptide expression levels; type: cell-based; details: peptide and Aβ expressed in H4 cells, FIG. 13 lanes 6 to 8
Procedure: as §4, §5, §6, §7, §8
For the control, after Aβ was expressed in nerve cells (H4 cells), the expression and activity of a neural cell death-associated protein were measured through IB.

nerve cells (N2a) [9] = assay: Cytotoxicity by nuclear morphology through IFA; type: cell-based, mouse; details: overexpressed in N2a, FIG. 5
Procedure: as §1, §2, §3
To confirm cytotoxicity of the peptide (NABi) of the present invention, the peptide of the present invention was overexpressed in nerve cells (N2a), and a nuclear morphology was observed through IFA. […]

Aβ [10] = target: T1, Aβ; assay: FRAP assay of Aβ mobility in nerve cells (N2a); type: cell-based; parameters: Aβ, and generally a peptide consisting of 36 to 43 amino acids; expressed in transfected cells; host or cells: N2a (murine neuroblastoma); details: FIG. 9
Procedure: Fluorescence recovery after photobleaching (FRAP) is a technique for detecting the mobility of a fluorescence-tagged molecule in living cells. N2a cells were cultured in a 35 mm cell culture dish at a density of 5×10^4 cells/dish, and after 12 hours, a target plasmid was transfected into the cells.
Thirty six hours after the transfection, whether an aggregate was formed was analyzed by a laser confocal microscope. A specific area (white box part) was photobleached 15 times using 594 nm laser, and then fluorescence recovery in the photobleached part was measured at an interval of 3 seconds.
To confirm the inhibition of Aβ aggregation by the peptide (NABi) of the present invention, the peptide of the present invention and Aβ were overexpressed in nerve cells (N2a), a predetermined region was repeatedly exposed to a high intensity laser beam through a FRAP assay. Afterward, an Aβ protein was removed from the laser beam-exposed region, and then fluorescence recovery according to migration of peripheral Aβ proteins was measured in real time.
For the control, after Aβ was overexpressed in nerve cells (N2a), fluorescence recovery according to migration of peripheral Aβ proteins was measured in real time through a FRAP assay.

Peptide 3: truncated fragment of SOD1 consisting of β-strands β4 to β6, 75 aa
Acting with β-amyloid (Aβ [1]): Not acting | Binding strength with β-amyloid (Aβ [1]): 0 | Binding to Aβ (Aβ [1]): did not bind to Aβ

Peptide 4: truncated fragment of SOD1, β1-to-β3 sequence, 39 aa (SEQ ID NO: 2) (ATKAVCVLKGDGPVQGIINFEQKESNGPVKVWGSIKGLT; peptide 2)
Binding strength with β-amyloid (Aβ [1]): 1 | Binding strength to Aβ (Aβ [1]): bound to Aβ at a similar strength

Peptide 5: Natural Amyloid β Binder and Amyloid β aggregation inhibitor; β1-to-β5 strand sequence of SOD1, 90 aa (SEQ ID NO: 3 or 4)
Nerve cells in which no Aβ protein aggregate was observed (Aβ protein aggregate): ≥ 80% | Reduction of the number of PI-stained apoptotic cells compared to the control (nerve cells (H4 cells) [2]): approximately ⅓ | Neural cell death by AnnexinV staining (nerve cells (H4 cells) [3]): neural cell death was inhibited | Morphological changes in nuclei (chromosomal condensation and fragmentation) (nerve cells (H4 cells) [4]): less morphological changes in nuclei | Truncated forms of PARP1, Lamin A/C (nerve cells (N2a) [5]): not detected either | Active caspase-3, active caspase-8, active caspase-9 and γ-H2AX (nerve cells (N2a) [5]; STS as apoptosis positive control): not detected | Reduction of Aβ aggregates compared to the control (Aβ [6]; i) 0.1 M HEPES/TBS (pH 7.4)): 1/10 | Reduction of Aβ aggregates compared to the control (Aβ [6]; ii) 0.01 M HCl/TBS): ⅓ | Self-aggregate formation (nerve cells (N2a) [7]): did not form a self-aggregate | Detection of truncated caspase-3, truncated PARP and truncated Lamin A/C (nerve cells (H4 cells) [8]): greatly reduced | Binding strength with β-amyloid (Aβ [1]): 1 | Binding strength to Aβ (Aβ [1]): bound to Aβ at a similar strength; also recorded: strongly bound to Aβ | Binding to Aβ (Aβ [1]): bound to Aβ | Nuclear morphology (nerve cells (N2a) [9]; compared with normal N2a control): normal nuclear morphology | Recovery of fluorescence removed by photobleaching (Aβ [10]; within 20 seconds): 50% | Recovery of fluorescence removed by photobleaching (Aβ [10]; within 90 seconds): 75%

G93A: SOD1 mutant in which the 93th amino acid glycine was changed to alanine; aggregation and apoptosis comparator [Peptide G93A, reference compound]
Cells with condensed and fragmented nuclei (nerve cells (N2a) [9]): approximately 50%

Peptide 6: truncated fragment of SOD1 consisting of β-strands β5 to β8, 74 aa
Acting with β-amyloid (Aβ [1]): Not acting | Binding strength with β-amyloid (Aβ [1]): 0 | Binding to Aβ (Aβ [1]): did not bind to Aβ
